Measurements published in publication PMC7561547 (2020).

Biological target: FGFR2b (Homo sapiens, UniProt P21802)
Assay: SPR

- Kd: 0.58 nM
B1: bemarituzumab (antibody, V domains shown)
VH: QVQLVQSGAEVKKPGSSVKVSCKASGYIFTTYNVHWVRQAPGQGLEWIGSIYPDNGDTSYNQNFKGRATITADKSTSTAYMELSSLRSEDTAVYYCARGDFAYWGQGTLVTVSS
VL: DIQMTQSPSSLSASVGDRVTITCKASQGVSNDVAWYQQKPGKAPKLLIYSASYRYTGVPSRFSGSGSGTDFTFTISSLQPEDIATYYCQQHSTTPYTFGQGTKLEIKR
